Results from publication PMC10699790 (Science Advances, 2023).

Tests used:
HA-Halo-mGluR8 = HA-Halo-mGluR8 (human, UniProt O00222 34-908, Halo tag labeled with CA-SS-Alexa-488); assay: single-molecule pulldown
HA-Halo-mGluR2 = HA-Halo-mGluR2 (rat, UniProt P31421 19-872, Halo tag labeled with CA-SS-Alexa-488); assay: single-molecule pulldown
Chain of HA-Halo-mGluR2 (P31421 19-872): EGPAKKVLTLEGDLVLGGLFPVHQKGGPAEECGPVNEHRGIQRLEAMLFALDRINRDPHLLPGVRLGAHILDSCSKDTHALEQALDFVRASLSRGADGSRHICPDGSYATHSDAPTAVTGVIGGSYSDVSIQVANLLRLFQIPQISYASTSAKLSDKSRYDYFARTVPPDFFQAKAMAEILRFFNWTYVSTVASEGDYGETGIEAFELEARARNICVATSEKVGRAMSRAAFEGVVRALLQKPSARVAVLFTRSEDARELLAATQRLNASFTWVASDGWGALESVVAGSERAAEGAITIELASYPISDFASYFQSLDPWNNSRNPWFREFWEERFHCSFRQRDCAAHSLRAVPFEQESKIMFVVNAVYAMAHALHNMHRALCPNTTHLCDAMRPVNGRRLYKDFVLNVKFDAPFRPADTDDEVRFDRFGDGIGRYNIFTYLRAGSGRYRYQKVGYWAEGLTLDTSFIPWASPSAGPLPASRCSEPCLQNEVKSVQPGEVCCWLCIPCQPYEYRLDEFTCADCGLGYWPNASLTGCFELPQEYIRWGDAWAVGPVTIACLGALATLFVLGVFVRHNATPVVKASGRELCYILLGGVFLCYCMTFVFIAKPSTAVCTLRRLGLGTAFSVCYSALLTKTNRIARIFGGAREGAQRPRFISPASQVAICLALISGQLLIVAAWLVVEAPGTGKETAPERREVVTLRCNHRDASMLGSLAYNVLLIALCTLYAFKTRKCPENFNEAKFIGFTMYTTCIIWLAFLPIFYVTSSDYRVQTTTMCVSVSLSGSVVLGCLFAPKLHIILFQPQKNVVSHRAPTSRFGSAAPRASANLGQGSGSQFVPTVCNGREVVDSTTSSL

Chain of HA-Halo-mGluR8 (O00222 34-908): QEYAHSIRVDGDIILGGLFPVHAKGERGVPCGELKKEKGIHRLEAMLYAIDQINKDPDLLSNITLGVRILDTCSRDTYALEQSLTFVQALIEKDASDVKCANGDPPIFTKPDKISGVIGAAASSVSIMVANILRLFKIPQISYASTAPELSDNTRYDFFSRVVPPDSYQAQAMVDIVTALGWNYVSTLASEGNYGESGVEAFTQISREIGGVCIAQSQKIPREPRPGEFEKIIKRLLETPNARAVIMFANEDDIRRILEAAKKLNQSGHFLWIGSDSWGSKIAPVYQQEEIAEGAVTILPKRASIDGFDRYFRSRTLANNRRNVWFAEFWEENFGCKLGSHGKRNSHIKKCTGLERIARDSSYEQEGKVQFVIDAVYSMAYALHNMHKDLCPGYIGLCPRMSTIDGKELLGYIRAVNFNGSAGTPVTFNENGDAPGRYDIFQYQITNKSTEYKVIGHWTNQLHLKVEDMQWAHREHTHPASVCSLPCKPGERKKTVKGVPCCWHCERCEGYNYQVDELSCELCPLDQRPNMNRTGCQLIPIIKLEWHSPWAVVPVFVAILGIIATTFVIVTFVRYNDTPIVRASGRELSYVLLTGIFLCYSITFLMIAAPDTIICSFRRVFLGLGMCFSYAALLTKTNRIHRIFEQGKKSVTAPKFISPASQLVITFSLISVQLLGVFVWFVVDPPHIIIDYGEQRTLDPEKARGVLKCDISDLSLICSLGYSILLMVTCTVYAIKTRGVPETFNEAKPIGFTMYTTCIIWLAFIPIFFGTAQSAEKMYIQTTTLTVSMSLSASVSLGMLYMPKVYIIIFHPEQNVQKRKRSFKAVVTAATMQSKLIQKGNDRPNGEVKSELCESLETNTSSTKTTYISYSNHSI

B1: SNAP-mGluR3 without an HA tag (receptor)
chain: LGDHNFMRREIKIEGDLVLGGLFPINEKGTGTEECGRINEDRGIQRLEAMLFAIDEINKDNYLLPGVKLGVHILDTCSRDTYALEQSLEFVRASLTKVDEAEYMCPDGSYAIQENIPLLIAGVIGGSYSSVSIQVANLLRLFQIPQISYASTSAKLSDKSRYDYFARTVPPDFYQAKAMAEILRFFNWTYVSTVASEGDYGETGIEAFEQEARLRNICIATAEKVGRSNIRKSYDSVIRELLQKPNARVVVLFMRSDDSRELIAAANRVNASFTWVASDGWGAQESIVKGSEHVAYGAITLELASHPVRQFDRYFQSLNPYNNHRNPWFRDFWEQKFQCSLQNKRNHRQVCDKHLAIDSSNYEQESKIMFVVNAVYAMAHALHKMQRTLCPNTTKLCDAMKILDGKKLYKEYLLKINFTAPFNPNKGADSIVKFDTFGDGMGRYNVFNLQQTGGKYSYLKVGHWAETLSLDVDSIHWSRNSVPTSQCSDPCAPNEMKNMQPGDVCCWICIPCEPYEYLVDEFTCMDCGPGQWPTADLSGCYNLPEDYIKWEDAWAIGPVTIACLGFLCTCIVITVFIKHNNTPLVKASGRELCYILLFGVSLSYCMTFFFIAKPSPVICALRRLGLGTSFAICYSALLTKTNCIARIFDGVKNGAQRPKFISPSSQVFICLGLILVQIVMVSVWLILETPGTRRYTLPEKRETVILKCNVKDSSMLISLTYDVVLVILCTVYAFKTRKCPENFNEAKFIGFTMYTTCIIWLAFLPIFYVTSSDYRVQTTTMCISVSLSGFVVLGCLFAPKVHIVLFQPQKNVVTHRLHLNRFSVSGTATTYSQSSASTYVPTVCNGREVLDSTTSSL
modifications: SNAP tag labeled with SBG-JF646
stoichiometry N (HA-Halo-mGluR8): 1 | stoichiometry N (HA-Halo-mGluR2): 1
